Where no end group is shown, it is not given here.
T1: mouse bombesin receptor subtype-3 (mouse, UniProt O54798 1-399)
T1 construct: bombesin receptor subtype-3 of mouse (Mus musculus); also called mBRS3; mouse BRS3; source: HEK293, transiently transfected, on cells
T1 sequence (looked up): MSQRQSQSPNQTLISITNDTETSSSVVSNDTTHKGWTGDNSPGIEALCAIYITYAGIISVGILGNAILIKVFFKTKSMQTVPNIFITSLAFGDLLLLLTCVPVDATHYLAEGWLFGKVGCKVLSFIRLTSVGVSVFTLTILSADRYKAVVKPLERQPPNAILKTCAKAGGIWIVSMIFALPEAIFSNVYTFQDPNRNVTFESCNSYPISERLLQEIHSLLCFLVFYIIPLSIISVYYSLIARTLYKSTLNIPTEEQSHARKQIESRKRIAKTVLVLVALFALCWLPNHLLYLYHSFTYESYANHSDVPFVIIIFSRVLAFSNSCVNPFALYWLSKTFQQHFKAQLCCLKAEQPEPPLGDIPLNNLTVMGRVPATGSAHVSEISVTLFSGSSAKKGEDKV

T2: human bombesin receptor subtype-3 (human, UniProt P32247 1-399)
T2 construct: bombesin receptor subtype-3 of human (Homo sapiens); also called hBRS3; human BRS3; source: HEK293, transiently transfected, on cells
T2 sequence (looked up): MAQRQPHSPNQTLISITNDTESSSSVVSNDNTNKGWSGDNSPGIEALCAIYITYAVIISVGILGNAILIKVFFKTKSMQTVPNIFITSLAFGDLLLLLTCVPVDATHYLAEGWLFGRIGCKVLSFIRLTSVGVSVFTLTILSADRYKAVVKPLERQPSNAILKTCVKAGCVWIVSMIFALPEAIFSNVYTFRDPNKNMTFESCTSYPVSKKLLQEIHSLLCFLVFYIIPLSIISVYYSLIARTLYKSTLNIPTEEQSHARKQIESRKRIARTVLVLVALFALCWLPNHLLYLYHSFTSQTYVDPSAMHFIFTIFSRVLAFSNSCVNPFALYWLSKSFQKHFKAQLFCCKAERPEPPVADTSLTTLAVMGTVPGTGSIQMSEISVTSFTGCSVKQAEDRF

B1: neuromedin B, unlabeled ligand peptide of the radioligand binding assays (peptide)
peptide: YKIKVNPRGNLWATGHFM
modifications: ends and bridges not checked
notes: The N-terminal Tyr may have been added for iodination (surmise); No C-terminal amide is printed for this peptide; also called NMB; source: synthetic peptide (Anhui Guoping Pharmaceutical)
B2: gastrin-releasing peptide, unlabeled ligand peptide of the radioligand binding assays (peptide)
peptide: APLQPGGSPALTKIYPRGSHWAVGHLM
modifications: ends and bridges not checked
notes: gastrin-releasing peptide, 27 residues; No C-terminal amide is printed for this peptide; also called GRP; source: synthetic peptide (Anhui Guoping Pharmaceutical)

Legend:
Details in all cases: one partner purified
[1] = biological target: T1, mouse bombesin receptor subtype-3; experiment: radioligand binding; displacement of 50 pM [125I]-Tyr-NMB by unlabeled peptide on disaggregated transfected HEK293 cells; 1 h at 21°C; 24.5 mM HEPES pH 7.4, 98 mM NaCl; bound tracer separated by centrifugation
[2] = biological target: T2, human bombesin receptor subtype-3; experiment: as above
[3] = biological target: T1, mouse bombesin receptor subtype-3; experiment: radioligand binding; displacement of 50 pM [125I]-Tyr42-GRP by unlabeled peptide on disaggregated transfected HEK293 cells; 1 h at 21°C; 24.5 mM HEPES pH 7.4, 98 mM NaCl; bound tracer separated by centrifugation
[4] = biological target: T2, human bombesin receptor subtype-3; experiment: as above

Row | Binder | Ki [1] [µM] | Ki [2] [µM] | Ki [3] [µM] | Ki [4] [µM]
1 | B1 | > 1 | > 1 | – | –
2 | B2 | – | – | > 1 | > 1

— paper PMC6422423, “Constitutively active BRS3 is a genuinely orphan GPCR in placental mammals” (PLoS Biology, 2019)
